Data reported in PMC6862323, “Substitution of Arginine 120 in Human D-Amino Acid Oxidase Favors FAD-Binding and Nuclear Mistargeting” (Frontiers in Molecular Biosciences, 2019).

System: C[C@@H](N)C(=O)O
Assay: purified protein, by the assay type
Settings: other: air saturation, 25°C, pH 8.5, 0.2 mM FAD

R120E hDAAO variant (Homo sapiens; R120E), sequence (chain, as listed by the source R120E R120E): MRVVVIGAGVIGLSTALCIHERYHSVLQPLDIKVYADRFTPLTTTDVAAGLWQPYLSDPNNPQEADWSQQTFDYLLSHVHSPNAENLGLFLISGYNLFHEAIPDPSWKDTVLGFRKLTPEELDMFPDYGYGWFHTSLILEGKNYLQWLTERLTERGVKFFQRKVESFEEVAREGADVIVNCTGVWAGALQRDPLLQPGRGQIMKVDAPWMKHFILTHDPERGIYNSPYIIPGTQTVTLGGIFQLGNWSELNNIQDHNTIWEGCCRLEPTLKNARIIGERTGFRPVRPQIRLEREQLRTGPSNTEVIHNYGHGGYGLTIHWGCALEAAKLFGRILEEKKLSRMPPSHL
R120L hDAAO variant (Homo sapiens; R120L), sequence (chain, as listed by the source R120L R120L): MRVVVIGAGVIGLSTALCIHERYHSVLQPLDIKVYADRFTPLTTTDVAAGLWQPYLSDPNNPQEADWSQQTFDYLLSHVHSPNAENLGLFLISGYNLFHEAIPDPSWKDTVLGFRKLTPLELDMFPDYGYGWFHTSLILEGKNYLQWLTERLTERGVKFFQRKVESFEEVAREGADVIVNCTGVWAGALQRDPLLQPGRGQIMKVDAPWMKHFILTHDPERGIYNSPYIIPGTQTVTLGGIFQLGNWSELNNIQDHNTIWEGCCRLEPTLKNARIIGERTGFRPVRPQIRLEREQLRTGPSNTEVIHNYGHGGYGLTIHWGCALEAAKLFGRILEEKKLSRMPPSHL

Row | Substance | Km [µM] | kcat [s⁻¹] | kcat/Km [M⁻¹ s⁻¹]
1 | R120L hDAAO variant (Homo sapiens; R120L) | 2000 ± 300 | 17.3 | 8500
2 | R120E hDAAO variant (Homo sapiens; R120E) | 1400 ± 100 | 12.6 | 8900
